Test results: a protein production outcome set (Wang et al. 2014)

Experiment: label from the status in PepcDB records

| Sequence | protein production |
| --- | --- |
| MGKGCAASLWPTAIGPRMPRPLSLLPRPAGLMLRLVGSLVLTLWLVWLLADRLALLAPGEVIAALSGLPVWRLAAALLATAVSFWALGRYDGVAHRHFRTGLAARQARLCGMAAIGFSQFVGCGVLSGSFARWRMIGDLTPALALRLTTFVAITFLLALAFWASALCLIAPPLPGLRQTGVAGLALLLPITLVLFLLPRLRLGRFTLRLPSLRALGAILGWAALDLAAAAAVLWVLLPALSWTDLPLLMSAYVLALAAGLLSGAPGGLGAFELTLLALLPAIPGAELMAAVLAYRLIYVALPALAAVPLLLSPPDLRLGRQHRLPRRIHHHPPARPRAETAVVTQSRGYVLSGGFADMAVVETDQSLIMLFDPVCGGRHPDLYLLARRAAQRNLFALVYKCSARVAVSARRAGWRVRHVSDEATLVPADFTIAGSHRRQLRRKLRQAERAGLTVRRASTLPLTQMAAVDRLWQEANGRAWGLTMGRFAPDYLARQAVFLAWRGARLEGFVSFHRSRDEWCLDLMRTHPDAPEGTMHALVATALAATAAARVPRLSLAAVPAGRLGHRFDGLRQFKDSFAPRWQPLYMAAPGWTAIALAAADLARHVQAPPPLAAPDAQPAHDLDEEIEFASLTGT | failed |
| MGKGDPKKPRGKMSSYAFFVQTCREEHKKKHPDASVNFSEFSKKCSERWKTMSAKEKGKFEDMAKADKARYEREMKTYIPPKGETKKKFKDPNAPKRPPSAFFLFCSEYRPKIKGEHPGLSIGDVAKKLGEMWNNTAADDKQPYEKKAAKLKEKYEKDIAAYRAKGKPDAAKKGVVKAEKSKKKKEEEEDEEDEEDEEEEEDEEDEDEEEDDDDE | failed |
| MGKKKNKKTEVQQPDPMRKNWIMENMDSGVIYLLESWLKAKSQETGKEISDIFANAVEFNIVLKDWGKEKLEETNTEYQNQQRKLRKTYIEYYDREMK | not failed |
| MGKKLDALLGRSFKTNKFKSLITLALTRLSILKNQRQARLSQAISDVTELLKLGQHEHAYHRVDQVVKDQNTLDVLFFIHGYFTLCLDRIHLFEHNRDCPEELLEAVSGLLFAASRIGEFPELQEIRNVLISRFGKDLAARSIELRSNCGVDPKIIQKLSTRPPPKEVRMKALKEIAAENNIVLKLDQASTSTEGTTNMQGTSDVSKTKLTSKDGRGEGYGLSDSVKRGKKKYKDVADAAQAAFESAAHAAEAAQAAVELSQFSPRGHDSPGNIGGENSFHGSENKESEQEQEGNDDSSEGEGDVMSESKRSMSDSEDIIDVPVMSFREDPVKLLEKDTIIYDSEEETQPSVETITISKSKDEQNRMVGSNRADTRHVDHMVRSIEDPIMRKAGLKGPVSVRTRQVRGY | failed |
| MGKKTENLKIDAKKSFLKRIAKNVKVSEGERAVEDILRCIYRNQPISTKKIGQYVKLPLPIVSKVRSILERESLLKRDDKGAVLSKKGIDFVENELGLKLKSDMKCPVCSGRNIVFDEKFEKILKKHKTYAKLRPQVNTMIDQSFATPETATARAAIMADRGDLEGKRVLFVGDDDLASIPTAMTGLCSEVVVLDIDDRLLKLISEVSKKENLNIRTVKWDFKNELPSEFVNKFDTIFTDPPYTLNGAVLFMSRGIEALGDNGILYLAFSHKPVEEYIELQKSINNMNFLIYELIPGFNFYEGTEIIGNTTFLARLVGKNLKKIEVNSEKIYTGELKPTLRYYQCMNCKKIHEVGNKVKRIEDLTCECGGKK | failed |
| MGKMEPFRATGDGLFIMNEGNFQYGNATLSYYDPETKKVENEIFYRANAMKLGDVAQSMIVRDTIGWVVVNNSHVIFAISTNTFKEVGRITGLTSPRYIHFISDEKAYITQIWDYRIFIVNPKTYQITGYIECPDMTMETGSTEQMVQYGKYVYVNCWSYQNRILKIDTTTDKVVDQLTVGIQPTSLVMDKNFKMWTITDGGYKGSPYGYEEPSLYRIDAETFKIEKQFKFQLGDAPSEVQLNGAGDELYWINKDIWRMSVDEERVPVRPFLKYRDTKYYGLTVSPKNGDVYVADAIDYQQQGMIYRYTEDGELVDEFYVGIIPGAFCWKLEHHHHHH | not failed |
| MGKSDFIKVNVSNSHNDAVAFEVKLAKDLTVAQLKTKLEILTGGCAGTMKVQVFKGDTCVSTMDNNDAQLGYYANSDGLRLHVVDS | not failed |
| MGLEQAVVDFFNHMGLLNLTVGNVVMIIVGLTLVYLAIRYEMEPLLLLPIGISAVLVNLPLSHMANWPLAPQLPPEIQENIFATISYLSQQYGPPGLFDLIYYLLIKTEVVPLLIFFGLGAMTDFGPMIADPKTALLGAAAQIGVFVAMLVALALGFNLKEAASIGIIGGADGPTTIYLTTKLAPHILSATAVAAYSYMSLVPLIQPPVIKALTTPEERRIRMEQLRPVSKREKILFPIASMIVIGLLVPSAAPLIGMLMIGNLFRESGVVQRLSKAAQEELMNIVTIFLGLGIGSTMRAESFLTPKTLMILALGVVAFASATAGGVLFGKIMMKISGGKINPMIGAAGVSAVPMSARVVQRLASEEDPGNFILMHAMGPNVAGVIGTAVVAGVFLSALG | failed |
| MGLFFAQNMMYNHTITVYDRNYELVKVIPDEVDLSKYGHSRFKGKYRGAPVEASFSHNGKYAWISNYQMYGPGFNNPGSDKCHPSQKTDKSFLYRINTETLKIDRVIPVGSVPKFVATSTDENLILVSNWCSWDLSVVDINQNQEIKRIKLGPYPRGIVVDPASETAYVAVMGSYNIAKVNLRDFSVQWLRNIGSSPRHLNIDPAGKYLYASLNGEGKIAKISLPQGNLVKKIATGNAPRSMVLSANGQTLYVVNYGEDTVSKVRTSDMKVLQKVKVEPDPIGITYDPQTREVWVACYSGNIMIFQDLEHHHHHH | not failed |
| MGLFQIKPDIHYGANSLDILRTLEMEKVFLVTDENMVKLKVINKVTNILKSRGIEAKVYSDVKPDPTDEEIIKGMLELSAHDPDCIIALGGGSPIDACKSMIYFTNQIKRAMGQNKKPKFIAIPTTSGTGSEVTSYAVVTTKDKKIPLSDSEMLPDIAILNPEFIKTLSPSIIADTGMDVLTHAIEAYVSKSRNLFTNTFAIGAIKTVFADLVSNFENPQLEKERINLQIASCMAGVAFSNAGLGINHSIAHSLGARFHKPHGRLNAVIMSEVIQFNARNKNAAKYYREIVEALGFSPKEDVEGVEILAKAIKMRAAKMGIPNSLSELGIPKEQYFDEMEGIIDQIENDMCTGENPRRFSRIEMKQLLTDLY | not failed |
| MGLKIIHNEGIEMKLQLKADLGLLLVTFFWGASILLTKVGLEGIEEYNLIALRFIIAFLLSGLIFYKHLFKIDFKTVKYAFILASVLFIVYIFATFGTKYTSVSNAGFLLCLTVIFIPILSAIFLKHIPEQKVIVGIILTIIGIGLLTLTSEFKIGNGDIFCILSALFYAIHVIITGSVTKHVNSIALGVVQLGFVGLFSLIFSFIIETPKLPSTINSWLIILALSIFCTAVAFIVQVIAQQYTTPTHTGLIFSLEPVFSAGFAFVFTGETLTRKGYLGATLILVSVLIAEVDFKSLLRVNYKKNVE | failed |
| MGLLFFHNDVTDRFNPFIHQQDVYVQIDRDGRHLSPGGTEYTLDGYNASGKKEEVTFFAGKELRKNAYLKVKAKGKYVETWEEVKFEDMPDSVQSKLKLEHHHHHH | not failed |
| MGLPLVLDFDLYFCLMKCFIHQQLHLKVGYRLTERFVKTFGEERDGVWFYPRPEDIAARSYDDLRALQLSRRKAEYIVDVSRLIADGTLRLDDLEQMEDGEVMERLTAIRGIGPWTVQNFLLFGLEHHHHHH | failed |
| MGLQGQLSDVSSDSIPLMLLSLLAVFINHLRSFLLRLTSKSNPNLPVDDVSIASGLANIIVLADQLSLNRLFSYRCGDGGGGGSDCVVCLSKLKEGEEVRKLECRHVFHKKCLEGWLHQFNFTCPLCRSALVSDDCVSKTQRSVGRDLISCFSLH | failed |
| MGLSKVEEKYRKSHEIFLKRLAALPKPEFDNTLPVHEKLDEIKKTVAEHQVTIICGETGSGKTTQLPKICLELGRGVAGLIGHTQPRRLAARSVAERIAEELKSEIGSAVGYKVRFTDHTSRDACVKLMTDGILLAETQTDRYLAAYDTIIIDEAHERSLNIDFLLGYLKQLLPRRPDLKVIITSATIDAERFSRHFNGAPVLEVSGRTYPVEILYRPLTGKDEDDAEVELTDAIVDAADELARHGEGDILVFLPGEREIRETAEALRKSTLRRNDEILPLFARLSHAEQHKIFHPSGAKRRIVLATNVAETSLTVPGIKYVIDTGLARVKRYSARAKVEQLHVEKISQAAARQRSGRCGRVSAGVCIRLFSEEDFNSRPEFTDPEIVRSNLAAVILRMASLNLGDVAAFPFLEMPDSRYINDGFQVLLELGAVEAVLEHHHHHH | failed |
| MGLTKQYLRYVASAVFGVIGSQKGNIVFVTLRGEKGRYVAVPACEHVFIWDLRKGEKILILQGLKQEVTCLCPSPDGLHLAVGYEDGSIRIFSLLSGEGNVTFNGHKAAITTLKYDQLGGRLASGSKDTDIIVWDVINESGLYRLKGHKDAITQALFLREKNLLVTSGKDTMVKWWDLDTQHCFKTMVGHRTEVWGLVLLSEEKRLITGASDSELRVWDIAYLQEIEDPEEPDPKKIKGSSPGIQDTLEAEDGAFETDEAPEDRILSCRKAGSIMREGRDRVVNLAVDKTGRILACHGTDSVLELFCILSKKEIQKKMDKKMKKARKKAKLHSSKGEEEDPEVNVEMSLQDEIQRVTNIKTSAKIKSFDLIHSPHGELKAVFLLQNNLVELYSLNPSLPTPQPVRTSRITIGGHRSDVRTLSFSSDNIAVLSAAADSIKIWNRSTLQCIRTMTCEYALCSFFVPGDRQVVIGTKTGKLQLYDLASGNLLETIDAHDGALWSMSLSPDQRGFVTGGADKSVKFWDFELVKDENSTQKRLSVKQTRTLQLDEDVLCVSYSPNQKLLAVSLLDCTVKIFYVDTLKFFLSLYGHKLPVICMDISHDGALIATGSADRNVKIWGLDFGDCHKSLFAHDDSVMYLQFVPKSHLFFTAGKDHKIKQWDADKFEHIQTLEGHHQEIWCLAVSPSGDYVVSSSHDKSLRLWERTREPLILEEEREMEREAEYEESVAKEDQPAVPGETQGDSYFTGKKTIETVKAAERIMEAIELYREETAKMKEHKAICKAAGKEVPLPSNPILMAYGSISPSAYVLEIFKGIKSSELEESLLVLPFSYVPDILKLFNEFIQLGSDVELICRCLFFLLRIHFGQITSNQMLVPVIEKLRETTISKVSQVRDVIGFNMAGLDYLKRECEAKSEVMFFADATSHLEEKKRKRKKREKLILTLT | failed |
| MGNGVQPLDPVAIQIGSISVKWYGVIIASAVVIALLLALSEANKRKMDKEIIVDLLIWAIPISIISARIYYVIFEWDFYKNNLGEIVKIWHGGIAIYGALIGAVLTAIIFSRIKKISFWQLADVVAPSLIIAQAIGRWGNFMNQEAHGAETTRSFLESLHLPDFIINQMYIDGAYYQPTFLYESLWNVLGFVILLIIRRTKIRRGELFLGYVIWYSFGRFFIEGMRTDSLMWGDFRVSQALSLLLIVLSIGIIIYRRLKMNPPYYMEDKFGKVVKKK | not failed |
| MGNLKLALIIKSPRDDVEFLLEKQKQPAKFGDEAYDSFVDSDLWDLPSTDLQALEDGVRSGFSISILDSCSEEVDLMNFDFESTLILLLENLGIDISDVGEWRFVRSVEEPEFGPDSCVRTCFISGKLLNTDQSLQDNCKWMSMESCFDSLIDVKLGSDRVGPLVLLGLGDGSRQSMKHKLSSSLAIQEYPPGVMIVPMHSKTLKPFRTTNLVVFAPENGLGDHQGADFVAHGDALIVDPGCLSKLHVELKKIVDALPRKLIVFVTHHHRDHIDGLSAIQESNPDAILVAHAKTRHRIGGWSGNYTPVSGGENIYVNGQKLTVIFAPGHTDGHMSLLHTSTQSLIVGDHCVGQGSAFLDIRAGGNMTDYFQSTYKFLELSPNVVIPMHGRVNLWPKHMLCGYLKNRRSREKSILKATVDGAQTLYDIVAKVYSSVDRKFWWAASSNVRLHIEKLAVENKLPEGFSIQKFKASCGLRFAIRCTVGYIISKIPFKINKPGFIMSVMAAGAGYFLLYTSKKKNQIES | failed |
